According to the supplement of paper PMC11316812:
± gives the standard deviation of the averaged measurements.

Assays:
[1] = test system: hTERT-HMEC; assay: percentage of EdU-negative (G0-arrested) nuclei per well, 72 h; higher = more G0 arrest; details: reference: sequence is the full UniProt precursor, the tested protein was the secreted form or ectodomain
[2] = test system: MCF7; assay: as above; details: reference: sequence is the full UniProt precursor, the tested protein was the secreted form or ectodomain
[3] = protein concentration 0.0143975 µM
[4] = protein concentration 0.0290625 µM
[5] = protein concentration 0.143975 µM
[6] = protein concentration 0.290625 µM
[7] = protein concentration 0.0357143 µM
[8] = protein concentration 0.357143 µM
[9] = protein concentration 0.0225 µM
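Also: secreted proteins added to cultured cells, EdU pulse at the end, nuclei found by Hoechst imaging, EdU status from nuclear versus surrounding ring intensity ratio, PBS as neutral control.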

Chain of Q9BZP6 (chain, as listed by the source): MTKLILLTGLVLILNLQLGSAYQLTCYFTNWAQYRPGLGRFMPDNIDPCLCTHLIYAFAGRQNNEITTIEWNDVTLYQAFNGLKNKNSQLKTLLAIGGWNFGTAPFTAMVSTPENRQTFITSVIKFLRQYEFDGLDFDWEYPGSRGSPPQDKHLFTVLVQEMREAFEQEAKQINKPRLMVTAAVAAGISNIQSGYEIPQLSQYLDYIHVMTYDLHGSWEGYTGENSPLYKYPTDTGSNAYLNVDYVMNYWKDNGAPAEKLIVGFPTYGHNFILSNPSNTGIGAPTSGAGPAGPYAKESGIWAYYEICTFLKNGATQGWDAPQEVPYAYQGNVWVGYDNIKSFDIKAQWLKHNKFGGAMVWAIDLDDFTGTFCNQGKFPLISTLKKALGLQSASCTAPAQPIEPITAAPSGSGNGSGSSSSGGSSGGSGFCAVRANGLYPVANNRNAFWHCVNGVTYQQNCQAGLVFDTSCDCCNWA

## MEALMARGALTGPLRALCLLGCLLSHAAAAPSPIIKFPGDVAPKTDKELAVQYLNTFYGCPKESCNLFVLKDTLKKMQKFFGLPQTGDLDQNTIETMRKPRCGNPDVANYNFFPRKPKWDKNQITYRIIGYTPDLDPETVDDAFARAFQVWSDVTPLRFSRIHDGEADIMINFGRWEHGDGYPFDGKDGLLAHAFAPGTGVGGDSHFDDDELWTLGEGQVVRVKYGNADGEYCKFPFLFNGKEYNSCTDTGRSDGFLWCSTTYNFEKDGKYGFCPHEALFTMGGNAEGQPCKFPFRFQGTSYDSCTTEGRTDGYRWCGTTEDYDRDKKYGFCPETAMSTVGGNSEGAPCVFPFTFLGNKYESCTSAGRSDGKMWCATTANYDDDRKWGFCPDQGYSLFLVAAHEFGHAMGLEHSQDPGALMAPIYTYTKNFRLSQDDIKGIQELYGASPDIDLGTGPTPTLGPVTPEICKQDIVFDGIAQIRGEIFFFKDRFIWRTVTPRDKPMGPLLVATFWPELPEKIDAVYEAPQEEKAVFFAGNEYWIYSASTLERGYPKPLTSLGLPPDVQRVDAAFNWSKNKKTYIFAGDKFWRYNEVKKKMDPGFPKLIADAWNAIPDNLDAVVDLQGGGHSYFFKGAYYLKLENQSLKSVKFGSIKSDWLGC
[1]; [3]
  percentage of EdU-negative: 4.84 ± 0.7%
[1]; [4]
  percentage of EdU-negative: 5.59 ± 1.1%
[1]; [5]
  percentage of EdU-negative: 9.87 ± 1.2%
[1]; [6]
  percentage of EdU-negative: 4.97 ± 0.54%
[2]; [3]
  percentage of EdU-negative: 23.9 ± 0.91%
[2]; [4]
  percentage of EdU-negative: 26.7 ± 1.5%
[2]; [5]
  percentage of EdU-negative: 25.25 ± 0.19%
[2]; [6]
  percentage of EdU-negative: 27.8 ± 0.84%

## MPPFLLLTCLFITGTSVSPVALDPCSAYISLNEPWRNTDHQLDESQGPPLCDNHVNGEWYHFTGMAGDAMPTFCIPENHCGTHAPVWLNGSHPLEGDGIVQRQACASFNGNCCLWNTTVEVKACPGGYYVYRLTKPSVCFHVYCGHFYDICDEDCHGSCSDTSECTCAPGTVLGPDRQTCFDENECEQNNGGCSEICVNLKNSYRCECGVGRVLRSDGKTCEDVEGCHNNNGGCSHSCLGSEKGYQCECPRGLVLSEDNHTCQVPVLCKSNAIEVNIPRELVGGLELFLTNTSCRGVSNGTHVNILFSLKTCGTVVDVVNDKIVASNLVTGLPKQTPGSSGDFIIRTSKLLIPVTCEFPRLYTISEGYVPNLRNSPLEIMSRNHGIFPFTLEIFKDNEFEEPYREALPTLKLRDSLYFGIEPVVHVSGLESLVESCFATPTSKIDEVLKYYLIRDGCVSDDSVKQYTSRDHLAKHFQVPVFKFVGKDHKEVFLHCRVLVCGVLDERSRCAQGCHRRMRRGAGGEDSAGLQGQTLTGGPIRIDWED [Q8WWZ8]
[1]; protein concentration 0.007 µM
  percentage of EdU-negative: 5.2 ± 0.59%
[1]; protein concentration 0.07 µM
  percentage of EdU-negative: 5.67 ± 1.7%
[2]; protein concentration 0.007 µM
  percentage of EdU-negative: 25.2 ± 1.8%
[2]; protein concentration 0.07 µM
  percentage of EdU-negative: 27.3 ± 1.3%

## Q9BZP6
[1]; [7]
  percentage of EdU-negative: 5.02 ± 0.9%
[1]; [8]
  percentage of EdU-negative: 6.66 ± 0.26%
[2]; [7]
  percentage of EdU-negative: 23.1 ± 1.2%
[2]; [8]
  percentage of EdU-negative: 27.6 ± 0.63%

## MARAAALLPSRSPPTPLLWPLLLLLLLETGAQDVRVQVLPEVRGQLGGTVELPCHLLPPVPGLYISLVTWQRPDAPANHQNVAAFHPKMGPSFPSPKPGSERLSFVSAKQSTGQDTEAELQDATLALHGLTVEDEGNYTCEFATFPKGSVRGMTWLRVIAKPKNQAEAQKVTFSQDPTTVALCISKEGRPPARISWLSSLDWEAKETQVSGTLAGTVTVTSRFTLVPSGRADGVTVTCKVEHESFEEPALIPVTLSVRYPPEVSISGYDDNWYLGRTDATLSCDVRSNPEPTGYDWSTTSGTFPTSAVAQGSQLVIHAVDSLFNTTFVCTVTNAVGMGRAEQVIFVRETPNTAGAGATGGIIGGIIAAIIATAVAATGILICRQQRKEQTLQGAEEDEDLEGPPSYKPPTPKAKLEAQEMPSQLFTLGASEHSPLKTPYFDAGASCTEQEMPRYHELPTLEERSGPLHPGATSLGSPIPVPPGPPAVEDVSLDLEDEEGEEEEEYLDKINPIYDALSYSSPSDSYQGKGFVMSRAMYV
[1]; [9]
  percentage of EdU-negative: 4.75 ± 0.29%
[1]; protein concentration 0.225 µM
  percentage of EdU-negative: 5.33 ± 0.83%
[2]; [9]
  percentage of EdU-negative: 21.9 ± 1.3%
[2]; protein concentration 0.225 µM
  percentage of EdU-negative: 22.8 ± 0.43%
